Laboratory results from the DeepSol protein solubility set.

Assay: soluble on expression in E. coli; label from the status in PepcDB or PDB records

Row | Sequence | soluble on expression in E. coli
1 | SNAMLSANQIKFLRSLRERKYRLREQAFAVEGPKLVGEMLPFYRCRMLVGTAAMLRAVSTPHDAEVVELPESFDFKRISTQTTPQPLMAVFDLPAEPEPVVEGLTLLLDGVQDPGNVGTILRTADWFGIRHVWLGTGSADVFSPKVVQASMGALARVQPTPLKNTVDTLAYFRRQGIPVYGAFLDGQSLYEAPLPNFTEPAILVLGSEGRGISPEVAAEITDRLTIPASGLSVKGHTESLNVAIATAILCSEWRRRS | soluble
2 | EQKVYEQKTRQQVMLSAYQQKEKDIESILDMQKQNSKQRHDINNVLILISELIQDEKYSKALEVLDKYRTGYNNINVTEIVSNNIVLNYLLNRKINQCREAGIDMACYVLWNIAGVDDMDLYILLENLCDNAIEAAGQCEKPSIKLQIAEDNASMYIDIGNTTSGNVLNNNPHMNTTKKDKNMHGFGIMNIRDIIDKYNGTINYEQQGDNYLMCRCTLEKVCQ | not soluble
3 | EVEGDKTVPNNVANAPFAGTEPLAKKLGLTEVNSLNTAVAATSSFVQFNAIASHSTFASPSGTLADVNHHAEMQKENADFLMDNALSDVSDTTVLK | not soluble
4 | MGSDKIHHHHHHMITPQDRLIKALNGQVIDRSPCICPGGMMNMATTEIMQRVGSHWPEAHKKPQDMARLALGVCHLTGMENLGVPFCMTVEAEAMGAKVNLGSLANEPRVAEYPLMKLEDWETLSGINPGEGRAGIVAEAVSYLTSSKTELPVIANLTGPISLASSLIEPMVFFKAMGKKPELVHEFLYFVTDNLIVFGRSMLQAGAQIINIADPGGTEEILGPRHFAEFALPYINRILNELQGEYQASMVHICGRLQSIFTEINQLATNAISIDSTTSISKLRSALREKVVVGNISTYLLQNAQPGRVKATGFNCLRKGITILSPACGISPATPLANLQAMVSAVHDFDYQNREVSSLG | not soluble
5 | MGSDKIHHHHHHAQNFSDYFEDKTLRADYIFTGDAKKQEVYLDELSSLPQWAGRKHHLAELPLAGNGEITMKDKATGETIYRTSFSSLFQEWVSEEEASRIKRGFENSFLLPYPKKEAVVTISLKDVYHKVNASLTHEIIPNDILIHQRGTNHITPHRYLLQNGNAADCIDVAIMAEGYTEKEMDIFYKDAQTACDALFSHEPFKKLKDKFNIVAVASPSEDSGVSIPGQGKWKSTAVSSHFNTFYSDRYLTTSRVKSIHNWLAGIPYEHIIILANTDTYGGGGIYNSYTLTTAHHPDFQPVVVHEFGHSFGGLADEYAYTETPSPQYPYEVEPWEPNITTLIDFDSKWKDMIPEGTAIPTPVATENADLYTKVGVYEGAGYTQKGLYRPTTECRMKINEAPAFCPVCQRALERLINFYTAK | not soluble
6 | MMQTSRPTLQLLTASACYRDDPTALFHQLCGARPATLLLESAEVDNKQNLKSLLVIDSALRITALGQTVTLEALTRNGASLLPLLDASLPTEVDIQVRPNGRELTFPLINEVQDEDSRLQSLSVFDALRQLLTLVNTPLAEREALFLGGLFAYDLVAGFENLPPLRQDQRCPDFCFYLAETLLVLDHQHRSTRLQASLFTPDSSEYQRLATRLEQLSHQLQQAPHPIPATSVPEMALQCNQSDEEYCNVVSELQVAIREGEIFQVVPSRRFTLPCPSPLAAYQTLKDHNPSPYMFFMQDNDFSLFGASPESALKYDASNRQIEIYPIAGTRPRGRRPNGELDRDLDSRIELEMRTDHKEMAEHLMLVDLARNDLARICEPGSRYVADLTKVDRYSFVMHLVSRVIGTLRQDLDVLHAYQACMNMGTLSGAPKVRAMQLIASNEGSRRGSYGGAVGYFTAHGDLDTCIVIRSAYVEDGIATVQAGAGVVLDSVPQAEADETRNKARAVLRAIATAHHAKEIF | not soluble
7 | MGSDKIHHHHHHLDVDTGKLQSLAASRYGARGARAVDDWLQLLRNDTSASEANQLARVNAFWNQRVLSGEDTHIWGRADYWATPLETLGKGAGDCEDYVIGKYFSLISLGVPTEKLRFIYVRARIGGPYSNQQIAHMVLGYYPTPNAVPLVLDSLISTIMPANERRDLTPVFSFNADGVYVDGKQASPVDRLSRWRDLLLRMEREGLRP | not soluble
8 | MGSDKIHHHHHHLCLIKPGLKVLEIGCGTGRVLKPLLESGASVVGVDISHEMLALAHNKLASFCDSGALRLLNHNFVYSSIPERFDRVFVTFYTFNYLLSYENALSFLKNIYSSMNDGAVLLMDMFFPSIYHNPAIEGKWQQRYLNLGAKQIRLSDRRTMRGPMEKREQVFEEDGGRQEITTLRRFYDKNETARLLREAGFSSVKFTDVYDSTLFHQLELLEATDRGFLVMGRREAGGGEG | not soluble
9 | MGSDKIHHHHHHMSSTPSNQNIIPIIKKESIVSLFEKGIRQDGRKLTDYRPLSITLDYAKKADGSALVKLGTTMVLAGTKLEIDKPYEDTPNQGNLIVNVELLPLAYETFEPGPPDENAIELARVVDRSLRDSKALDLTKLVIEPGKSVWTVWLDVYVLDYGGNVLDACTLASVAALYNTKVYKVEQHSNGISVNKNEVVGKLPLNYPVVTISVAKVDKYLVVDPDLDEESIMDAKISFSYTPDLKIVGIQKSGKGSMSLQDIDQAENTARSTAVKLLEELKKHLGI | not soluble
10 | MNKFSLFFALTATLMTITESAVPTASISAHVLDISGGSPAGGVQILAYIQQNDDWTKIGSEFTQDNGRVDWVSPDFTLIPGTYRLVYITEPYYKAKNVESFYPYVEVVFNIRDATQHYHVPLTLSPWGYSTYRGS | not soluble
11 | MGSDKIHHHHHHMAPMKIGLILEGTYPYVTGGVSNWVHTLLTNLPEFEFEIYHLKAVTEPQTIKYKIPENVTAVHELNIFGDFESDSSQKANLESLERIVSQLSIERDIRSIVSFAIDFIRENAGKNVRKMLKTKGFWNILLKIYEEFFSERGLTEFYWMIMNLFLPVVNVLQFVPNRCDLFHVPSTGYASLVGMNGKFVHDVPLVITEHGIYHKEREREIILSTWVPDAYKPMWIELFRIISMIAYRVSDALTTLYRKNQIYQLELGADPEKMFIIPNGINVEEYDLPPEKHEGFVVGFVGRVARIKDLKTAIRAISIVKEVVGEKLTFLIIGPVDAEDYLAECKRLVRVLRLEDTVEFLGPQNVKEYYPKFDLLLLSSVSEGQPLVILEAMAAGVPIVATDVGACRDIIYDKDGQCGIVVPPKDHLSMSKAIIKLYEDKELRDTFSKNAKKVVQKYRVETMIEKYRNLYLSLTSKKTVSTV | not soluble
12 | MGSDKIHHHHHHMCRWLAYTGNPIPLETVLFRAKHSLIDQSLHSRMGATTTNGDGFGIGWYGQPDEVPFIYRCVSPAWNDRNLREAARAIRSPLFVAHVRSATDTPVQETNCHPFRRGRWLFAHNGLIRRYHTLRRDLMMRIDPGLFASIEGSTDSEVMFHLALTFGLEHDPLAALERMAGAIEDAGAHHRVDAPLNMTVCATDGEQVVAVRYSSEHDSRSLFHSTSFRHLHELYPHDPRIRAIGDDAFLVLSEPLVDLHDAWEKIPESTAIIARRGDIRQVPFQPRRST | not soluble
13 | MASGPHSTATAAAAASSAAPSAGGSSSGTTTTTTTTTGGILIGDRLYSEVSLTIDHSLIPEERLSPTPSMQDGLDLPSETDLRILGCELIQAAGILLRLPQVAMATGQVLFHRFFYSKSFVKHSFEIVAMACINLASKIEEAPRRIRDVINVFHHLRQLRGKRTPSPLILDQNYINTKNQVIKAERRVLKELGFCVHVKHPHKIIVMYLQVLECERNQTLVQTAWNYMNDSLRTNVFVRFQPETIACACIYLAARALQIPLPTRPHWFLLFGTTEEEIQEICIETLRLYTRKKPNYELLEKEVEKRKVALQEAKLKAKGLNPDGTPALSTLGGFSPASKPSSPREVKAEEKSPISINVKTVKKEPEDRQQASKSPYNGVRKDSKRSRNSRSASRSRSRTRSRSRSHTPRRHYNNRRSRSGTYSSRSRSRSRSHSESPRRHHNHGSPHLKAKHTRDDLKSSNRHGHKRKKSRSRSQSKSRDHSDAAKKHRHERGHHRDRRERSRSFERSHKSKHHGGSRSGHGRHRR | not soluble
14 | MHHHHHHSSGVDLGTENLYFQSMEKTELIQKAKLAEQAERYDDMATCMKAVTEQGAELSNEERNLLSVAYKNVVGGRRSAWRVISSIEQKTDTSDKKLQLIKDYREKVESELRSICTTVLELLDKYLIANATNPESKVFYLKMKGDYFRYLAEVACGDDRKQTIDNSQGAYQEAFDISKKEMQPTHPIRLGLALNFSVFYYEILNNPELACTLAKTAFDEAIAELDTLNEDSYKDSTLIMQLLRDNLTLWTSDSAG | soluble
15 | MVGGEDMAKKKAPSAKEGEKQQGFKEIIPEVTEKLVEQARKEVARERWVTPHKLAQKMGVKVSIARRVLRILEEEGVLVLFTRNRRSPLYLEHHHHHH | not soluble
